According to the nanobody polyreactivity screen of Harvey et al. (2022):

Assay: yeast display, Sf9 membrane polyspecificity reagent, FACS + sequencing; frameworks hold sequencing errors
Outline: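 Galactose induction of a Saccharomyces cerevisiae BJ5465 synthetic nanobody display library ran 36–48 hours. The cells were then stained for 1 hour at 4 °C with 10% biotinylated, detergent-solubilized Sf9 membrane reagent, pulled down on streptavidin microbeads and FACS-sorted into low and high (top ~1%) gates on expression and reagent-binding fluorescence. Labels for polyreactivity follow the gate of origin.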

Row | Sequence | polyreactivity (PSR sort gate)
1 | QVQLVESGGGLVQAGGSLRLSCAASGRIIATNAMGWNRQAPGKERELVATITRSAGRTYYADSVKGRFTISRDNAKNTVYLHMNSLKPEDTAVYYCAASYWYTEPGYREYDYWGQGTQVTVSS | low polyreactivity
2 | QVQLVESGGGLVQAGGSLRLSCAASGSTFNTNAMGWYRQAPGKERELVAAITWRTGSTYYADSVKGRFTISRDNAKNTVYLQMNSLKPEDTAVYYCAADYFWYRSGRYHYWGQVTQVTVSS | high polyreactivity
3 | QVQLVESGGGLVQAGGSLRLSCAASGFTFPVNAMGWYRQAPGKERELVATINSGGSTNYADSVKGRFTISRDNAKNTVYLQMNSLKPEDTAVYYCAAVTTDGVYAFDYWGQGTQVTVSS | low polyreactivity
4 | QVQLVESGAGLVQAGGSLRLSCAPSGITFVGNAMGWSRPAPGKERELVAGIRGNGGSTYYADSVKGRFTISRDNAKNTVYFQMNSLKPEDTAVYYSAAAAYYADFDYWGLGTQVTVSS | low polyreactivity
5 | QVQLVESGGGLVQAGGSIRLSCAASGFTITHYAMGWYRQAPGKERELVAAISASGGSTYYADSVKGRFTISRDNAKYTVYVQMNSLKPEDTAVYYCAATWDYRRGRYPYDYWGQGTQVTVSS | high polyreactivity
6 | QVQLVESGGGLVQAGGSLRLSCAASGSTLSYYAMGWYRPAPGKDRELVAAISFSGGITYYADSVKGRFTISRDNAKNTVYLQMNSLKPEDTAVYYCNAEYQVYRAYVIWYDYWGQGTQVTVSS | high polyreactivity
7 | QVQLVESGGGLVQAGGSLRLIGAASGRSLYVYEMGWYRQAPGNDRELVAAISRGGGRTYYADSVKRRFTISRDKAKNTVYVQRNSLKPEDTAVYYGAAPLLIGVSTYRIAPRSGYWGQGTQVTLSS | high polyreactivity
8 | QVQLVESGGGLVQAGGSLRLSCAASGNTFPPNAMGWYRQAPGKERELVAAISWSGDSTYYADSVKGRFTISRDNAKNTVYLQMNSLKPEDTAVYYCAAAIFGEYEYWGQGTQVTVSS | low polyreactivity
9 | QVQLVESGGGLVQAGGSLRLSCAASGSTFEYNAMGGYRQAPGKERELVASSTNYADSVKGRFTISRDNAKNTVYLQMNSLKPEDTAVYYCAREQGVNRNHDYWGQGTQVTVSS | low polyreactivity
10 | QVQLVQSGGGLVQAGGSLRLSCAASGSTFYYYGMRSYREAPGKEMELFASISWRGGSTYSADSVKGRYTISRDNAKNTVYLQMNSLKPEDTAVYYCAASRRPWYRAVTWNAGDYWGQGTQVTVSS | high polyreactivity
11 | QVQLVESGGGLVQAGGSLRLSSAASGRTFNVNAMGLYRQAPGKERELVAAIDFSDGRTYYADSVKGRFTISRDNAKNTVYLQMNSLKPADTAVYYCARSFRVGKTWYDYWGQGTQVTVSS | high polyreactivity
12 | QVQLVESGGGLVQAGGSLRLSCAASGFTITYNAMGWYRKAPGKEREFVAAITNNGSTYYADSVKGRFTISRDNAKNTVYLQMNSLKPEDTAVYYCAVDPGYYDEYKYWGQGTQVTVSS | low polyreactivity
13 | QVQLVESGGGLVQAGGILRLSCAASGFIFRRYAMGWYRQEPGKERELVAAINYSGGSTYYADSVKGRFTISRDNAKNTVYLKMNSLKPEDTAVYYCAAGSRRGIDPGSDYWGQGNQVTVSS | low polyreactivity
14 | QVQLVESGGGLVQAGGSLRLSCAASGSIFYFNAMGWYRQAPGKERELVAAINWRGDRTYYADSVKRRFTISRDNAKNTVYLQMNSLKPEDTAVYYCNAVRVHAYSTGEYGYWGQGTQVTVSS | high polyreactivity
15 | QVQLVESGGGLVQAGGSLRLSCAASGSIFVNYAMGWYRQAPGKERELVAAISTGGGRTFYADSVKGRFTISRDNAKNTVYLQMNSLKPEDTAVYYCNKLGRPEYDYWGQGTQVTVSS | high polyreactivity
16 | QVQLVESGGGLVQAGGSLRLSCAASGITFVPNAMGWYRQAPGKERELVARIDNGVSTNYADSVKGRFTISRDNAKNTVYLQMNSLKPEDTAVYYCAKDGYWGDWDLYYWGQGTQVTVSS | low polyreactivity
17 | QVQLVESGGGLVQAGGSLRLSCAASGRTFAAYAMGWYRPAPGKESELVAAISSSSGNTYYADSVKGRFTISRDNAKNTVYLQMNSLKPEDTAVYYCNAQRRFNANYWYDYWGQGTQVTVSS | high polyreactivity
18 | QVQLVESGGGLVQAGGSLRLSCAASGFTFRGYAMGWYRPAPGKERELVAAIRGGGGRTYYADSVKGRFTISRDNAKNTVYLQMNSLKPEDTAVYYCAKVVSIRNDEYDYWGQGTQVTVSS | high polyreactivity
19 | QVQLVESGGGLVQAGGSLRLSCAASGSTFQSYAMGWYRQAPGKERELVAGITSGDSTNYADSVKGRFTISRDNAKNTVYFQMISLKPEDTAVYYCNAVTQASYYYWGQGTQVTVSS | low polyreactivity
20 | QVQLQESGGGLVQAGGSLRLSCAGTGNIIDADFMRWYRQAPGKERELAASSTEGGSTNYAESVKSRFTISRDNANNTVYLQMNSLKPEVTAVYYCAAIAYPYIPTYFDYDSDYFYWGQGTQVTVSR | high polyreactivity
21 | QVQLLESGGGLVQAGGSLRLSCAASGSTFTKYDMGWYRQAPGKERELVAAIRSGGDTNYADSVKGRFTISLDNAKNTVYLQMNSLNPEDTAVYYLAAARGPTNHTSYPWYEYDYWGQCTQVTVSS | low polyreactivity
